# Laboratory results published in US20230287489.
# T1: human placental RNase inhibitor (NEB, Cat #M0307S), P13489
# T1 chain: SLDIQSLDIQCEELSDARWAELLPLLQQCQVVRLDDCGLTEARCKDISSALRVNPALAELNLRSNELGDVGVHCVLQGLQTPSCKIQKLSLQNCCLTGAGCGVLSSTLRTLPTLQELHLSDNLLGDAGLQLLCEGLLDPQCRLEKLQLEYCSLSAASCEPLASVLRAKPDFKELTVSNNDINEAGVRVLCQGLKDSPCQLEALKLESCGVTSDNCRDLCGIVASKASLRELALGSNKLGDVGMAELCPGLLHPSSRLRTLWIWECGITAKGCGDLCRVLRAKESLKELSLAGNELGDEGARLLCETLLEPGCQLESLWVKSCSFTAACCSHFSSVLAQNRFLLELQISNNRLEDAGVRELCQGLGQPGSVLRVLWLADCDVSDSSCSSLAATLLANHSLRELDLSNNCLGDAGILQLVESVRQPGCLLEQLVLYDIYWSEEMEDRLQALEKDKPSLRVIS
# B1: recombinant wild-type human RNase4 (hRNase 4), periplasmically expressed as an MBP fusion protein (protein)
# chain: QDGMYQRFLRQHVHPEETGGSDRYCNLMMQRRKMTLYHCKRFNTFIHEDIWNIRSICSTTNIQCKNGKMNCHEGVVKVTDCRDTGSSRAPNCRYRAIASTRRVVIACEGNPQVPVHFDG
# Biological target: T1, human placental RNase inhibitor (NEB, …)
protein,measurement,value
B1,"cleavage of a target RNA oligonucleotide (SEQ ID NO: 23) by hRNase 4, LC-MS/MS",cleavage of the target oligonucleotide was inhibited following preincubation of hRNase 4 with human placental RNase inhibitor
